Experimental data from patent US20200024330A1.

Assays:
Assay in all cases: cell-based or functional assay
[1] = biological target: HIV-1 92BR020 envelope glycoprotein (Env) on pseudovirus (HIV-1)
[2] = biological target: HIV-1 92RW020 envelope glycoprotein (Env) on pseudovirus (HIV-1)
[3] = biological target: HIV-1 92TH021 envelope glycoprotein (Env) on pseudovirus (HIV-1)
[4] = biological target: HIV-1 92UG024 envelope glycoprotein (Env) on pseudovirus (HIV-1)
[5] = biological target: HIV-1 Env of isolate JRFL (HIV-1)
[6] = biological target: HIV-1 Env of isolate MGRM-AE-004 (HIV-1)
[7] = biological target: HIV-1 Env of isolate MGRM-AE-005 (HIV-1)
[8] = biological target: HIV-1 Env of isolate MGRM-AE-006 (HIV-1)
[9] = biological target: HIV-1 Env of isolate MGRM-AE-007 (HIV-1)
[10] = biological target: HIV-1 Env of isolate MGRM-AE-008 (HIV-1)
[11] = biological target: HIV-1 Env of isolate MGRM-AG-001 (HIV-1)
[12] = biological target: HIV-1 Env of isolate MGRM-AG-002 (HIV-1)
[13] = biological target: HIV-1 Env of isolate MGRM-AG-003 (HIV-1)
[14] = biological target: HIV-1 Env of isolate MGRM-AG-005 (HIV-1)
[15] = biological target: HIV-1 Env of isolate MGRM-AG-006 (HIV-1)
[16] = biological target: HIV-1 Env of isolate MGRM-AG-008 (HIV-1)
[17] = biological target: HIV-1 Env of isolate MGRM-AG-009 (HIV-1)
[18] = biological target: HIV-1 Env of isolate MGRM-AG-011 (HIV-1)
[19] = biological target: HIV-1 Env of isolate MGRM-AG-012 (HIV-1)
[20] = biological target: HIV-1 Env of isolate MGRM-AG-013 (HIV-1)
[21] = biological target: HIV-1 Env of isolate MGRM-Chronic-B-010 (HIV-1)
[22] = biological target: HIV-1 Env of isolate MGRM-Chronic-B-011 (HIV-1)
[23] = biological target: HIV-1 Env of isolate MGRM-Chronic-B-012 (HIV-1)
[24] = biological target: HIV-1 Env of isolate MGRM-Chronic-B-017 (HIV-1)
[25] = biological target: HIV-1 Env of isolate MGRM-Chronic-B-018 (HIV-1)
[26] = biological target: HIV-1 Env of isolate MGRM-Chronic-B-020 (HIV-1)
[27] = biological target: HIV-1 Env of isolate MGRM-Chronic-B-023 (HIV-1)
[28] = biological target: HIV-1 Env of isolate MGRM-Chronic-B-024 (HIV-1)
[29] = biological target: HIV-1 Env of isolate MGRM-D-021 (clade D) (HIV-1)
[30] = biological target: HIV-1 Env of isolate MGRM-G-001 (HIV-1)
[31] = biological target: HIV-1 Env of isolate MGRM-G-004 (HIV-1)
[32] = biological target: HIV-1 Env of isolate MGRM-G-006 (HIV-1)
[33] = biological target: HIV-1 Env of isolate MGRM-G-009 (HIV-1)
[34] = biological target: HIV-1 Env of isolate MGRM-G-016 (clade G pseudovirus) (HIV-1)
[35] = biological target: HIV-1 NL43 envelope glycoprotein (Env) on pseudovirus (HIV-1)
[36] = biological target: aMLV envelope (negative control pseudovirus)

For 2F5 (antibody), the IC90 (pseudovirus neutralization) [1] was greater than 50 µg/mL, the IC90 (pseudovirus neutralization) [2] was 27.7 µg/mL and the IC90 (pseudovirus neutralization) [3] was 18.8 µg/mL. For the same substance, the IC90 (pseudovirus neutralization) [4] was 34.4 µg/mL, the IC50 (µg/ml), pseudovirus neutralization [5] was 3.54 µg/mL and the IC50 (µg/ml), pseudovirus neutralization [6] was 0.98 µg/mL. For the same substance, the IC50 (µg/ml), pseudovirus neutralization [7] was 0.14 µg/mL, the IC50 (µg/ml), pseudovirus neutralization [8] was 0.18 µg/mL and the IC50 (µg/ml), pseudovirus neutralization [9] was 0.07 µg/mL. The IC50 (µg/ml), pseudovirus neutralization [10] was greater than 50 µg/mL, the IC50 (µg/ml), pseudovirus neutralization [11] was 0.75 µg/mL and the IC50 (µg/ml), pseudovirus neutralization [12] was 0.54 µg/mL. The IC50 (µg/ml), pseudovirus neutralization [13] was 0.14 µg/mL, the IC50 (µg/ml), pseudovirus neutralization [14] was greater than 50 µg/mL and the IC50 (µg/ml), pseudovirus neutralization [15] was 0.85 µg/mL. It also gave an IC50 (µg/ml), pseudovirus neutralization [16] of 0.54 µg/mL, an IC50 (µg/ml), pseudovirus neutralization [17] of 24.8 µg/mL and an IC50 (µg/ml), pseudovirus neutralization [18] greater than 50 µg/mL. For the same substance, the IC50 (µg/ml), pseudovirus neutralization [19] was 0.33 µg/mL, the IC50 (µg/ml), pseudovirus neutralization [20] was 1.79 µg/mL and the IC50 (µg/ml), pseudovirus neutralization [21] was 0.96 µg/mL. For the same substance, the IC50 (µg/ml), pseudovirus neutralization [22] was 0.81 µg/mL, the IC50 (µg/ml), pseudovirus neutralization [23] was 17.6 µg/mL and the IC50 (µg/ml), pseudovirus neutralization [24] was greater than 50 µg/mL. It also gave an IC50 (µg/ml), pseudovirus neutralization [25] of 10.8 µg/mL, an IC50 (µg/ml), pseudovirus neutralization [26] of 0.78 µg/mL and an IC50 (µg/ml), pseudovirus neutralization [27] of 0.1 µg/mL. The IC50 (µg/ml), pseudovirus neutralization [28] was greater than 50 µg/mL, the IC50 (µg/ml), pseudovirus neutralization [29] was greater than 50 µg/mL and the IC50 (µg/ml), pseudovirus neutralization [30] was 4.1 µg/mL. It also gave an IC50 (µg/ml), pseudovirus neutralization [31] greater than 50 µg/mL, an IC50 (µg/ml), pseudovirus neutralization [32] of 1.33 µg/mL and an IC50 (µg/ml), pseudovirus neutralization [33] of 7.21 µg/mL. It also gave an IC50 (µg/ml), pseudovirus neutralization [34] of 16.8 µg/mL, an IC90 (pseudovirus neutralization) [35] of 19.3 µg/mL and an IC50 (µg/ml), pseudovirus neutralization [36] greater than 50 µg/mL.

For 1495_C14 (PGC14) (antibody), the IC50 (µg/ml), pseudovirus neutralization [5] was greater than 50 µg/mL, the IC50 (µg/ml), pseudovirus neutralization [6] was greater than 50 µg/mL and the IC50 (µg/ml), pseudovirus neutralization [7] was greater than 50 µg/mL. The IC50 (µg/ml), pseudovirus neutralization [8] was greater than 50 µg/mL, the IC50 (µg/ml), pseudovirus neutralization [9] was greater than 50 µg/mL and the IC50 (µg/ml), pseudovirus neutralization [10] was greater than 50 µg/mL. It also gave an IC50 (µg/ml), pseudovirus neutralization [11] greater than 50 µg/mL, an IC50 (µg/ml), pseudovirus neutralization [12] greater than 50 µg/mL and an IC50 (µg/ml), pseudovirus neutralization [13] greater than 50 µg/mL. For the same substance, the IC50 (µg/ml), pseudovirus neutralization [14] was greater than 50 µg/mL, the IC50 (µg/ml), pseudovirus neutralization [15] was greater than 50 µg/mL and the IC50 (µg/ml), pseudovirus neutralization [16] was 45 µg/mL. For the same substance, the IC50 (µg/ml), pseudovirus neutralization [17] was greater than 50 µg/mL, the IC50 (µg/ml), pseudovirus neutralization [18] was greater than 50 µg/mL and the IC50 (µg/ml), pseudovirus neutralization [19] was greater than 50 µg/mL. For the same substance, the IC50 (µg/ml), pseudovirus neutralization [20] was greater than 50 µg/mL, the IC50 (µg/ml), pseudovirus neutralization [21] was 27 µg/mL and the IC50 (µg/ml), pseudovirus neutralization [22] was greater than 50 µg/mL. For the same substance, the IC50 (µg/ml), pseudovirus neutralization [23] was greater than 50 µg/mL, the IC50 (µg/ml), pseudovirus neutralization [24] was greater than 50 µg/mL and the IC50 (µg/ml), pseudovirus neutralization [25] was greater than 50 µg/mL. For the same substance, the IC50 (µg/ml), pseudovirus neutralization [26] was greater than 50 µg/mL, the IC50 (µg/ml), pseudovirus neutralization [27] was greater than 50 µg/mL and the IC50 (µg/ml), pseudovirus neutralization [28] was greater than 50 µg/mL. The IC50 (µg/ml), pseudovirus neutralization [29] was greater than 50 µg/mL, the IC50 (µg/ml), pseudovirus neutralization [30] was greater than 50 µg/mL and the IC50 (µg/ml), pseudovirus neutralization [31] was greater than 50 µg/mL. For the same substance, the IC50 (µg/ml), pseudovirus neutralization [32] was greater than 50 µg/mL, the IC50 (µg/ml), pseudovirus neutralization [33] was greater than 50 µg/mL and the IC50 (µg/ml), pseudovirus neutralization [34] was greater than 50 µg/mL. The IC50 (µg/ml), pseudovirus neutralization [36] was greater than 50 µg/mL.

1496_C09 (PG9) (TCN-109) (antibody) showed an IC50 (ug/ml), neutralizing activity [2] of 0.161 µg/mL, an IC50 neutralization [2] of 0.161 µg/mL and an IC80, neutralization [2] of 1.04 µg/mL. It also gave an IC90 (pseudovirus neutralization) [2] of 6.55 µg/mL, an IC90, neutralization [2] of 3.4 µg/mL and an IC50 (ug/ml), neutralizing activity [3] of 0.103 µg/mL. For the same substance, the IC50 neutralization [3] was 0.103 µg/mL, the IC80, neutralization [3] was 0.448 µg/mL and the IC90 (pseudovirus neutralization) [3] was 1.99 µg/mL. For the same substance, the IC90, neutralization [3] was 1.07 µg/mL, the IC95, neutralization [3] was 2.43 µg/mL and the IC50 (ug/ml), neutralizing activity [4] was 1.91 µg/mL. It also gave an IC50 neutralization [4] of 1.91 µg/mL, an IC50 (µg/mL), pseudovirus neutralization [6] of 0.009 µg/mL and an IC50 (µg/ml), pseudovirus neutralization [6] of 0.01 µg/mL. For the same substance, the IC50 (µg/mL), pseudovirus neutralization [7] was 0.282 µg/mL, the IC50 (µg/ml), pseudovirus neutralization [7] was 0.16 µg/mL and the IC50 (µg/mL), pseudovirus neutralization [8] was 0.063 µg/mL. It also gave an IC50 (µg/ml), pseudovirus neutralization [8] of 0.05 µg/mL, an IC50 (µg/mL), pseudovirus neutralization [9] of 0.18 µg/mL and an IC50 (µg/mL), pseudovirus neutralization [10] of 31.5 µg/mL. For the same substance, the IC50 (µg/ml), pseudovirus neutralization [10] was 10.6 µg/mL, the IC50 (µg/mL), pseudovirus neutralization [11] was 17.1 µg/mL and the IC50 (µg/ml), pseudovirus neutralization [11] was 8.83 µg/mL. For the same substance, the IC50 (µg/mL), pseudovirus neutralization [12] was 0.076 µg/mL, the IC50 (µg/ml), pseudovirus neutralization [12] was 0.04 µg/mL and the IC50 (µg/ml), pseudovirus neutralization [13] was 9.71 µg/mL. It also gave an IC50 (µg/ml), pseudovirus neutralization [14] of 29.7 µg/mL, an IC50 (µg/mL), pseudovirus neutralization [18] of 0.007 µg/mL and an IC50 (µg/ml), pseudovirus neutralization [18] of 0.01 µg/mL. The IC50 (µg/mL), pseudovirus neutralization [19] was 22.8 µg/mL, the IC50 (µg/ml), pseudovirus neutralization [19] was 1.37 µg/mL and the IC50 (µg/mL), pseudovirus neutralization [20] was 0.259 µg/mL. For the same substance, the IC50 (µg/ml), pseudovirus neutralization [20] was 0.23 µg/mL, the IC50 (µg/ml), pseudovirus neutralization [21] was 0.004 µg/mL and the IC50 (µg/ml), pseudovirus neutralization [23] was 0.91 µg/mL. It also gave an IC50 (µg/ml), pseudovirus neutralization [24] of 0.32 µg/mL, an IC50 (µg/ml), pseudovirus neutralization [25] of 0.16 µg/mL and an IC50 (µg/ml), pseudovirus neutralization [27] of 0.04 µg/mL. It also gave an IC50 (µg/ml), pseudovirus neutralization [28] of 0.18 µg/mL, an IC50 (µg/ml), pseudovirus neutralization [30] of 0.16 µg/mL and an IC50 (µg/ml), pseudovirus neutralization [32] of 0.51 µg/mL. The IC50 (µg/ml), pseudovirus neutralization [33] was 4.9 µg/mL, the IC50 (µg/ml), pseudovirus neutralization [34] was 0.4 µg/mL and the IC50 (ug/ml), neutralizing activity [35] was 0.687 µg/mL. The IC50 neutralization [35] was 0.687 µg/mL.

Work on PGV04 (antibody) yielded an IC50 (µg/mL), pseudovirus neutralization [6] of 0.183 µg/mL, an IC50 (µg/mL), pseudovirus neutralization [7] of 0.051 µg/mL and an IC50 (µg/mL), pseudovirus neutralization [8] greater than 50 µg/mL. It also gave an IC50 (µg/mL), pseudovirus neutralization [9] of 5.75 µg/mL, an IC50 (µg/mL), pseudovirus neutralization [10] of 1.51 µg/mL and an IC50 (µg/mL), pseudovirus neutralization [11] of 0.218 µg/mL. The IC50 (µg/mL), pseudovirus neutralization [12] was 0.879 µg/mL, the IC50 (µg/mL), pseudovirus neutralization [13] was 0.058 µg/mL and the IC50 (µg/mL), pseudovirus neutralization [14] was 0.027 µg/mL. It also gave an IC50 (µg/mL), pseudovirus neutralization [15] of 1.23 µg/mL, an IC50 (µg/mL), pseudovirus neutralization [16] of 2.48 µg/mL and an IC50 (µg/mL), pseudovirus neutralization [17] of 0.148 µg/mL. It also gave an IC50 (µg/mL), pseudovirus neutralization [18] of 0.071 µg/mL, an IC50 (µg/mL), pseudovirus neutralization [19] of 0.04 µg/mL and an IC50 (µg/mL), pseudovirus neutralization [20] of 0.03 µg/mL. It also gave a neutralization IC50 [36] greater than 50 µg/mL.
